Changes are numbered by the printed parent chain.
B1: Mab 34A9 (antibody, mouse IgG1, kappa, V domains shown)
VH: QVQLKQSGAELVRPGTSVKVSCKASGYAFTNFLIEWLKQRPGQGLEWIGTINPETGGTKYNEKFRGKATLTADKSSSTAYMQLNSLTSDDSAVYFCVREFFDYWGQGTSLTVSS
VL: ETTVTQSPSYLAASPGETITINCRASKSISKYLAWFQEKPGKTNKLLIYAGSTLHSGIPSRFSGSGSGTDFTLTISSLEPEDFAMYYCQQHNEYPYTFGGGTKLELKR
B2: Fab 1G9 (Fab, V domains shown)
VH: B1 VH with N31S, E54R
VL: ETTVTQSPSYLAASPGETITINCRASKSISKYLAWFQEKPGKTNKLLIYAGSKLHSGIPSRFSGSGSGTDFTLTISSLEPEDFAMYYCFQHNEYPYTFGGGTKLELK
notes: also called mouse 1G9; mouse Fab 1G9
B3: Mab 1G9 (antibody, mouse IgG1, kappa, V domains shown)
VH: B1 VH with N31S, E54R
VL: B1 VL with T53K, Q89F
B4: Mab 4A10-3 (antibody, human IgG4 S228P, kappa, F234A L235A, V domains shown)
VH: QVQLVQSGAEVKKPGSSVKVSCKASGYAFTSFLIEWVRQAPGQGLEWMGTSNPRTGGRKYKEKFRGRVTITADKSTSTAYMELSSLRSEDTAVYYCAREFFDYWGQGTTVTVSS
VL: DIQMTQSPSSLSASVGDRVTITCRASKSISKYTAWYQQKPGKAPKLLIYAGSKLHWGVPSRFSGSGSGTDFTLTISSLQPEDFATYYCQQHNEYPYTFGGGTKVEIKR
B5: Mab L2.2-4 (antibody, human IgG4 S228P, kappa, F234A L235A, V domains shown)
VH: B4 VH
VL: B4 VL with H55R, W56S
B6: Mab 3D8 (antibody, human IgG4 S228P, kappa, F234A L235A, V domains shown)
VH: B4 VH with R58T
VL: B4 VL with W56S
B7: Mab Combi11 (antibody, human IgG4 S228P, kappa, F234A L235A, V domains shown)
VH: B4 VH with G57R, R58T, E62S
VL: B4 VL with L54R

Assays:
human ferroportin 1 [1] = biological target: T1, human ferroportin 1 (human, UniProt Q9NP59 1-571); assay: cell-based or functional assay
T1 sequence: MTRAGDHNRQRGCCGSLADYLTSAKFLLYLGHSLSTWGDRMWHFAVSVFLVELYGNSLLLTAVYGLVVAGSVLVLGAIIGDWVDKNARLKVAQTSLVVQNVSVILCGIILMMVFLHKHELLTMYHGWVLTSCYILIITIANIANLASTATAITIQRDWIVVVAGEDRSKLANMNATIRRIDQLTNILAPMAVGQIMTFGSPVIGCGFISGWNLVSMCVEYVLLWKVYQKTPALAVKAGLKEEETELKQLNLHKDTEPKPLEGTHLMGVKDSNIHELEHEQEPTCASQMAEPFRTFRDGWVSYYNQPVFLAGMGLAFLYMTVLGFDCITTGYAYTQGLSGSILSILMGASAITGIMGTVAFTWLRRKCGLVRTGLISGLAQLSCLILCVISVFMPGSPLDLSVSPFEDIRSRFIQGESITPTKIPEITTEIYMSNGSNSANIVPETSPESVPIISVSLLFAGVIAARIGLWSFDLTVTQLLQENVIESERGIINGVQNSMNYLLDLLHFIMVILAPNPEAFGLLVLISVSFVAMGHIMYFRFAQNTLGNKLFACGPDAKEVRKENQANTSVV

FPN1-GFP [2] = biological target: T2, FPN1-GFP (human, UniProt Q9NP59 1-571, A GFP reporter is fused to the C terminus of FPN1. Its letters are not given, so it is left out.); assay: cell-based or functional assay
T2 sequence: T1 sequence

FPN1-GFP [3] = biological target: T2, FPN1-GFP; assay: cell-based or functional assay; remark: listed apart in the source
FPN1-GFP [4] = biological target: T2, FPN1-GFP; assay: SPR (Biacore T100) at 37 °C; FPN1-GFP captured on rabbit anti-GFP antibody; KD of Fab 1G9 against KD of Fab 34A9
human ferroportin 1 [5] = biological target: T1, human ferroportin 1; assay: inhibition of 30 nM biotinylated hepcidin binding to FPN/293 cells, ELISA read-out; antibody at 500 nM; mean
human ferroportin 1 [6] = biological target: T1, human ferroportin 1; assay: inhibition of 30 nM biotinylated hepcidin binding to FPN/293 cells, ELISA read-out; antibody at 2000 nM; mean
human ferroportin 1 [7] = biological target: T1, human ferroportin 1; assay: inhibition of 30 nM biotinylated hepcidin binding to FPN/293 cells, ELISA read-out; antibody at 7.8 nM; mean
human ferroportin 1 [8] = biological target: T1, human ferroportin 1; assay: inhibition of 30 nM biotinylated hepcidin binding to FPN/293 cells, ELISA read-out; antibody at 31.25 nM; mean
human ferroportin 1 [9] = biological target: T1, human ferroportin 1; assay: inhibition of 30 nM biotinylated hepcidin binding to FPN/293 cells, ELISA read-out; antibody at 125 nM; mean

Row | Molecule | Percent (%) Inhibition of Mature Human Hepcidin-induced Internalization and Degradation In Vitro; Mab at 7.4 nM (FPN1-GFP [2]) [%] | Percent (%) Inhibition of Mature Human Hepcidin-induced Internalization and Degradation In Vitro; Mab at 22 nM (FPN1-GFP [2]) [%] | Percent (%) Inhibition of Mature Human Hepcidin-induced Internalization and Degradation In Vitro; Mab at 67 nM (FPN1-GFP [2]) [%] | Percent (%) Inhibition of Mature Human Hepcidin-induced Internalization and Degradation In Vitro; Mab at 200 nM (FPN1-GFP [2]) [%] | Percent (%) Inhibition of Mature Human Hepcidin-induced Internalization and Degradation In Vitro; Mab at 600 nM (FPN1-GFP [2]) [%] | Relative IC50 (FPN1-GFP [3]) [nM] | Top % Inhibition (hepcidin-25-induced internalization and degradation of FPN1-GFP) (FPN1-GFP [3]) [%] | Absolute IC50 (FPN1-GFP [3]) [nM] | % Inhibition (human ferroportin 1 [5]) [%] | % Inhibition (human ferroportin 1 [6]) [%] | % Inhibition (human ferroportin 1 [7]) [%] | % Inhibition (human ferroportin 1 [8]) [%] | EC50 (nM); inhibition of hepcidin induced ferritin increase in Caco-2 cells (human ferroportin 1 [1]) [nM] | % Inhibition (human ferroportin 1 [9]) [%] | also measured
1 | Mouse IgG1, a negative control (antibody) |  |  |  |  |  |  |  |  |  |  |  |  |  |  | % Inhibition; ferritin in Caco-2 cells with 100 nM hepcidin; 6.25 µg/mL mIgG1 (human ferroportin 1 [1]): 0%; % Inhibition; ferritin in Caco-2 cells with 100 nM hepcidin; 12.5 µg/mL mIgG1 (human ferroportin 1 [1]): 0%; % Inhibition; ferritin in Caco-2 cells with 100 nM hepcidin; 25 µg/mL mIgG1 (human ferroportin 1 [1]): 7.2%; % Inhibition; ferritin in Caco-2 cells with 100 nM hepcidin; 50 µg/mL mIgG1 (human ferroportin 1 [1]): 0%; % Inhibition; ferritin in Caco-2 cells with 100 nM hepcidin; 100 µg/mL mIgG1 (human ferroportin 1 [1]): 3.5%; % Inhibition; ferritin in Caco-2 cells with 100 nM hepcidin; 200 µg/mL mIgG1 (human ferroportin 1 [1]): 11.6%; Ferritin (ng)/ protein (µg); Caco-2 cells with 100 nM hepcidin; 6.25 µg/mL mIgG1 (human ferroportin 1 [1]): 10.4 ng/µg; Ferritin (ng)/ protein (µg); Caco-2 cells with 100 nM hepcidin; 12.5 µg/mL mIgG1 (human ferroportin 1 [1]): 10 ng/µg; Ferritin (ng)/ protein (µg); Caco-2 cells with 100 nM hepcidin; 25 µg/mL mIgG1 (human ferroportin 1 [1]): 9.6 ng/µg; Ferritin (ng)/ protein (µg); Caco-2 cells with 100 nM hepcidin; 50 µg/mL mIgG1 (human ferroportin 1 [1]): 10.1 ng/µg; Ferritin (ng)/ protein (µg); Caco-2 cells with 100 nM hepcidin; 100 µg/mL mIgG1 (human ferroportin 1 [1]): 9.78 ng/µg; Ferritin (ng)/ protein (µg); Caco-2 cells with 100 nM hepcidin; 200 µg/mL mIgG1 (human ferroportin 1 [1]): 9.4 ng/µg
2 | B1 | 4.8 | 14.1 | 23.6 | 30.8 | 39 | 58.9 | 55.2 |  |  |  |  |  |  |  | 
3 | B2 |  |  |  |  |  |  |  |  |  |  |  |  |  |  | fold improvement in binding affinity against Fab 34A9 (FPN1-GFP [4]): ~5 fold
4 | B3 | 24.3 | 49.9 | 61.8 | 62.4 | 67.9 | 9.2 | 69 | 18.8 |  |  |  |  |  |  | 
5 | B4 |  |  |  |  |  | 4.7 | 85.9 | 5.7 | 84.9 | 95.3 | 5.4 | 13.4 | 37 | 59.3 | 
6 | B5 |  |  |  |  |  | 4.8 | 81.6 | 6.2 | 99.8 | 85.1 | -0.1 | 27.5 | 193 | 76.5 | 
7 | B6 | 28.1 | 50.2 | 55.7 | 63.8 | 66.4 | 10.2 | 86.8 | 13.7 |  |  |  |  | 360 |  | 
8 | B7 |  |  |  |  |  | 3.7 | 92.6 | 3.8 | 81.6 | 79.9 | 18.7 | 32.1 | 28 | 88.4 | 

— patent publication EP2373335B1 (Eli Lilly and Company, dated 2016)
